The values that follow come from patent US20220089735A1 (SUZHOU KANOVA BIOPHARMACEUTICAL, published 2022).

Where a chain is given by its changes, count along the chain named.

T1: human B7S1-his (Sinobiological, cat#10738-H08H-100) (human, UniProt Q7Z7D3 25-259)
T1 construct: extracellular domain; Bought protein; also called human B7S1 extracellular domain; B7-H4; not shown: His tag
T1 sequence (looked up): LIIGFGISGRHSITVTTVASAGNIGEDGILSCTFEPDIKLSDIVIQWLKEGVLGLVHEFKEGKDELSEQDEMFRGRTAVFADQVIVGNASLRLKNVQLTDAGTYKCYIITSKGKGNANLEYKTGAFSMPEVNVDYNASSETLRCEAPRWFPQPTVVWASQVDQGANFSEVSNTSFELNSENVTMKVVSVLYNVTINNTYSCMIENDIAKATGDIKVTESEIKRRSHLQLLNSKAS

T2: mouse B7S1-his (R&D system, cat#4206-B7-100) (mouse, UniProt Q7TSP5 29-256)
T2 construct: Bought protein; not shown: His tag
T2 sequence (looked up): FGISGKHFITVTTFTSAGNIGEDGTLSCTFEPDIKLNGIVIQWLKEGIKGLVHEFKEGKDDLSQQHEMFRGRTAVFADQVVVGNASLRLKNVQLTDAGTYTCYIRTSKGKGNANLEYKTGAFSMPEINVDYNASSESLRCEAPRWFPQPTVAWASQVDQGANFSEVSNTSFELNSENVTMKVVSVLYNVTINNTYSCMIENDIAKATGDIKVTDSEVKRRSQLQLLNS

T3: human B7S1 (NCBI Reference Sequence: NP_078902.2) expressed on a cell surface (human, UniProt Q7Z7D3 25-282)
T3 construct: whole, on cells; the assay field says which cells were used; also called B7S1 overexpressed on cell surface; B7S1 transfected BaF3 cell line
T3 sequence (looked up): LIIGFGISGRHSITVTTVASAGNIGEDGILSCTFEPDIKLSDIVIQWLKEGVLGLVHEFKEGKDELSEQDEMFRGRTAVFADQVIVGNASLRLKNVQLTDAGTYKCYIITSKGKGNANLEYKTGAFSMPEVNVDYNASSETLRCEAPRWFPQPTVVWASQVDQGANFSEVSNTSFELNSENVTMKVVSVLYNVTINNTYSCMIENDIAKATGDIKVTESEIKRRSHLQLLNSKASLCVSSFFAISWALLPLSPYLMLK

B1: humanized anti-B7S1 antibody VH1-5/VL4-5 (antibody, V domains shown)
VH: QVQLVQSGAEVKKPGASVKVSCKASGYTFTSYWMHWVKQAPGQGLEWIAAIYPGNSDTDYNQKFKGKAKITAVTSTSTAYMELSSLRSEDTAVYYCTTTVAHYFDYWGQGTMVTVSS
VL: EIVMTQSPATLSLSPGERATLTCKASQDVSFAVAWYQQKPGQAPKLLISSASYRYTGVPDRFSGSGSGTDFTLTISSLEPEDFAVYYCQQHYNTPLTFGGGTKVEIK
notes: Tested as a whole antibody with a human Fc (detected with anti-human IgG, Fc capture in SPR)
B2: humanized anti-B7S1 antibody VH1-5/VL4-4 (antibody, V domains shown)
VH: B1 VH
VL: B1 VL with M4L, T22S, K45R
notes: as for B1
B3: humanized anti-B7S1 antibody VH1-4/VL4-5 (antibody, V domains shown)
VH: B1 VH with K38R, A79V
VL: B1 VL
notes: as for B1

The target of the first assay is T1, human B7S1-his (Sinobiological, …). The experiment in a line: ELISA, antigen coated on plate. The protocol:
(§1) In order to test humanized anti-B7S1 antibody binding affinity, an ELISA analysis was carried out. 2 μg/ml of human B7S1-his (Sinobiological, cat#10738-H08H-100), mouse B7S1-his (R&D system, cat#4206-B7-100), and cynomolgus B7S1 extracellular domain (Leu25-Ser259, NCBI Reference Sequence: XP_005542249.1) were coated on MaxiSorp 96-well plates (NUNC, 449824) in 0.5M carbonate/bicarbonate buffer, pH9.6, incubated at 4° C. over night. Coated plates were blocked with skimmed milk (5%, in PBST) for 1h. Humanized anti-B7S1 antibodies were diluted and added to the plates, and incubated for 2h at room temperature. Washed three times with PBST (lx PBS with 0.05% tween-20) to eliminate un-bounded antibodies. Goat anti-Human IgG-HRP (Easybio, BE0122, 1:5000 in PBS) was added and incubated for 1h. Washed three times with PBST (lx PBS with 0.05% tween-20) to eliminate un-bounded antibodies. TMB (eBioscience, 00-4201-56) was added (50 ul/well) for color rendering and stopped by 2N H₂SO₄ (50 ul/well). Optical density was measured at 450 nm and 570 nm.
Take B1: a half-maximal response (EC50) required 0.52 nM.
Still for that read-out and setting: the result for B2 reads 0.4 nM; that for B3, 0.25 nM.

A further assay has as its target T2, mouse B7S1-his (R&D system, …). Description: ELISA, antigen coated on plate. The procedure:
as §1
(In an ELISA, binding on a coated surface is turned into a signal by an enzyme label.)
Take B1: the midpoint of the response, the EC50, lay at 1.09 nM.
Same read-out and setting: the value for B2 was 0.88 nM.
Same read-out and setting: the result for B3 reads 1.59 nM.

The target of the next assay is T4, cynomolgus B7S1 extracellular domain (Leu25-Ser259, NCBI Reference Sequence: XP_005542249.1) (cynomolgus monkey).
T4 construct: range 25-259; No tag or fusion partner is stated; also called cynomolgus monkey B7S1
The experiment in a line: ELISA, antigen coated on plate. The protocol: as §1
For B1, the response was half-maximal at 8.09 nM (EC50).
Still for that read-out and setting: the value for B2 was 3.26 nM.
On the same count and under the same terms, the value for B3 was 7.82 nM.

The target in another assay is T3, human B7S1 (NCBI Reference Sequence: …). Description: flow cytometry, LPS-stimulated human PBMCs. The protocol:
(§2) Peripheral blood mononuclear cells (PBMCs) contain monocytes which under stimulation would up-regulate B7S1 expression on cell surface. This example is to evaluate humanized anti-B7S1 antibody binding affinity on monocytes. Human buffy coat was diluted with PBS to according volume as twice as Ficoll (GE, 17-1440-02). The diluted buffy coat was layered gently on top of Ficoll and centrifuged at 2500 rpm for 40 min at 20° C. without brake. Carefully draw off PBMCs layer in between Ficoll and its transparent supernatant. PBS was added to 5 volumes of PBMCs and centrifuged at 1200 rpm for 10 min at 20° C. Discard supernatant and wash with PBS again. To eliminate platelets, centrifuge at 900 rpm for 8 min at 20° C. PBMCs were resuspended with culture medium (RPMI-1640 with 10% FBS and 1% PS), counted and aliquot to 96-well plate (5×10\hat{ }5 cells/well) with LPS added (100 ng/ml). After 24h incubation, cells were washed with PBS twice. For live/dead stain, LIVE/DEAD® Fixable Aqua Dead Cell Stain Kit (Life technologies, L34957) was applied (1:1000 in PBS, 100 ul/well) to cells, and incubated at 4° C. for 10 min FACS buffer (2% FBS in PBS, 100 ul/well) was added to each well to terminate staining. Centrifuge (1200 rpm, 5 min) to discard supernatant and wash with FACS buffer once. Humanized anti-B7S1 antibodies were diluted in FACS buffer to according concentrations and added to each well (100 ul/well). Cells were incubated at 4° C. for 30 min, and then, washed twice with FACS buffer. […] Cells were incubated at 4° C. for 30 min, and then, washed twice with FACS buffer. Cells were tested on flow cytometry. […] The mAbs meet the requirements for binding profile of antibody drugs.
For B1, the half-maximal effective concentration (EC50) (usually the concentration giving half of the maximal effect) is under 3 nM.
Still for that read-out and setting: the result for B2 reads under 3 nM; that for B3, under 3 nM.

For another assay, the target named is T1, human B7S1-his (Sinobiological, …). The experiment in a line: SPR, Biacore 8K, antibody captured by Fc, B7S1 as analyte. The protocol:
FIG. 1. Experimental results of Surface Plasmon Resonance (SPR) binding analysis using Biacore 8K. The data of dissociation (kd) and association (ka) rate constants were obtained using Biacore 8K evaluation software. The equilibrium dissociation constants (KD) were calculated from the ratio of kd over ka.
In addition, the affinity of the above mAbs was further analyzed by Surface Plasmon Resonance (SPR) binding analysis using Biacore 8K. SPR is the resonant oscillation of conduction electrons at the interface between negative and positive permittivity material stimulated by incident light. Antibodies were immobilized on the sensor chip through Fc capture method. Human B7S1 (Sinobiological, cat#10738-H08H-100) was used as the analyte. The data of dissociation (kd) and association (ka) rate constants were obtained using Biacore 8K evaluation software. The equilibrium dissociation constants (KD) were calculated from the ratio of kd over ka.
For orientation: Surface plasmon resonance follows binding to a sensor surface in real time, without labels.
For the molecule B1, binding was put at a Kd of 3.24 nM; the koff (in general, a measure of how fast the partners let go of each other) worked out at 0.000265 s⁻¹; the on-rate constant (kon) (in general, a measure of how fast the partners come together) worked out at 81700 M⁻¹ s⁻¹.
For B2, in that order: 1.86 nM, 0.000187 s⁻¹ and 101000 M⁻¹ s⁻¹.
B3: the Kd – broadly, a measure of binding affinity in units of concentration – worked out at 4.08 nM; the dissociation rate constant (koff) was determined as 0.000436 s⁻¹; the kon turned out to be 107000 M⁻¹ s⁻¹.

The target of a further assay is T3, human B7S1 (NCBI Reference Sequence: …). Description: flow cytometry on LPS-stimulated human PBMCs (percentage of live PBMC stained), detection with Alexa Fluor 594 goat anti-human IgG. The protocol: as §2
Background: In flow cytometry, cells or beads pass a laser one at a time.
As for B1, the EC50 stood at 2.6 nM.
On the same count and under the same terms, the result for B2 reads 3 nM.
Take B3: the 50% effective concentration (EC50) stood at 2.4 nM.

A further assay has the same target. Description: flow cytometry (mean fluorescence intensity) on BaF3 cells expressing human B7S1, detection with Alexa Fluor 594 goat anti-human IgG. The procedure:
To evaluate anti-B7S1 antibody binding affinity on cell surface over expressing B7S1, human B7S1 (NCBI Reference Sequence: NP_078902.2) was constructed on BaF3 cell line. The cells were washed with PBS and aliquot to 96-well U-bottom plate with a cell density of 5×10\hat{ }5 cells/well. For live/dead stain, LIVE/DEAD® Fixable Aqua Dead Cell Stain Kit (Life technologies, L34957) was applied (1:1000 in PBS, 100 ul/well) to cells, and incubated at 4° C. for 10 min FACS buffer (2% FBS in PBS, 100 ul/well) was added to each well to terminate staining. Centrifuge (1200 rpm, 5 min) to discard supernatant and wash with FACS buffer once. Humanized anti-B7S1 antibodies were diluted in FACS buffer to according concentrations and added to each well (100 ul/well). Cells were incubated at 4° C. for 30 min, and then, washed twice with FACS buffer. […] Cells were incubated at 4° C. for 30 min, and then, washed twice with FACS buffer. […] For example, the binding EC₅₀ of the tested mAbs is in the sub nM range.
As to B1, the response was half-maximal at 3.8 nM (EC50).
Consider B2, for which the response was half-maximal at 3.1 nM (EC50).
The same measure, in the same setting: the result for B3 reads 4.2 nM.
